Results published in article PMC10352136 (Nature Structural & Molecular Biology, 2023).
Where a chain is given by its changes, count along the chain named. Names may count otherwise.

T1: SNX5^PX (PX domain of SNX5) (human, UniProt Q9Y5X3 25-172)
T1 construct: PX domain of sorting nexin 5 (SNX5), human; also called SNX5^PX domain; isolated PX domain; source: E. coli BL21 (DE3), purified (Ni-NTA, TEV cleavage, ion exchange, SEC); not shown: His6-MBP, N-terminal, cleaved
T1 sequence (looked up): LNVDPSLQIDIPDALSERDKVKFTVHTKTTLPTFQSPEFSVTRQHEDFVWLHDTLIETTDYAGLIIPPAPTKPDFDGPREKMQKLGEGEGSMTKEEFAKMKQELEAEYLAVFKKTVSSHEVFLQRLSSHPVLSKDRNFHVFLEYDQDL

B1: SNX5 (4 mut)^‡ (Y219A, M233A, V240A, R368A) (natural protein, human, UniProt Q9Y5X3 1-404, looked up)
chain: MAAVPELLQQQEEDRSKLRSVSVDLNVDPSLQIDIPDALSERDKVKFTVHTKTTLPTFQSPEFSVTRQHEDFVWLHDTLIETTDYAGLIIPPAPTKPDFDGPREKMQKLGEGEGSMTKEEFAKMKQELEAEYLAVFKKTVSSHEVFLQRLSSHPVLSKDRNFHVFLEYDQDLSVRRKNTKEMFGGFFKSVVKSADEVLFTGVKEVDDFFEQEKNFLINAYNRIKDSCVKADKATRSHKNAADDYIHTAACLHSLALEEPTVIKKYLLKVAELFEKLRKVEGRVSSDEDLKLTELLRYYMLNIEAAKDLLYRRTKALIDYENSNKALDKARLKSKDVKLAEAHQQECCQKFEQLSESAKEELINFKRKAVAAFRKNLIEMSELEIKHARNNVSLLQSCIDLFKNN
notes: sorting nexin 5 (SNX5), human, four point mutations; source: E. coli BL21 (DE3), purified (glutathione Sepharose, TEV cleavage, SEC); not shown: GST, N-terminal, cleaved
B2: SNX5^FL (full-length sorting nexin 5) (natural protein, human, UniProt Q9Y5X3 1-404, looked up)
chain: B1 chain with A219Y, A233M, A240V, A368R
notes: sorting nexin 5 (SNX5), human, full length; Monomer by SEC-MALS; also called SNX5^WT; source: E. coli BL21 (DE3), purified (glutathione Sepharose, TEV cleavage, SEC); not shown: GST, N-terminal, cleaved
B3: SNX5 (6 mut)^§ (Y219A, M233A, V240A, R368A, I398A, F401A) (natural protein, human, UniProt Q9Y5X3 1-404, looked up)
chain: B1 chain with I398A, F401A
notes: sorting nexin 5 (SNX5), human, six point mutations; source: E. coli BL21 (DE3), purified (glutathione Sepharose, TEV cleavage, SEC); not shown: GST, N-terminal, cleaved
B4: SUMO-CI-MPR_(2330–2491) (entire cytosolic tail domain of CI-MPR) (domain or fragment, UniProt P11717 2330-2491, looked up)
chain: ERRETVISKLTTCCRRSSNVSYKYSKVNKEEETDENETEWLMEEIQLPPPRQGKEGQENGHITTKSVKALSSLHGDDQDSEDEVLTIPEVKVHSGRGAGAESSHPVRNAQSNALQEREDDRVGLVRGEKARKGKSSSAQQKTVSSTKLVSFHDDSDEDLLHI
notes: cation-independent mannose-6-phosphate receptor (CI-MPR), cytosolic tail, residues 2330-2491; also called CI-MPR tail domain; cytoplasmic domain of the CI-MPR; source: E. coli Rosetta (DE3), purified; not shown: His6-SUMO3, N-terminal, kept
B5: CI-MPR_(2330–2491) cytosolic tail with an N-terminal cysteine, cross-linked to liposomes (domain or fragment, UniProt P11717 2330-2491, looked up)
chain: B4 chain
modifications: N-terminal cysteine cross-linked to maleimide-functionalized lipid (DSPE-Mal) on liposomes
notes: cation-independent mannose-6-phosphate receptor (CI-MPR), cytosolic tail, residues 2330-2491; also called CI-MPR tail; source: E. coli Rosetta (DE3), purified, conjugated to DSPE-Mal liposomes; not shown: Cys (added for chemical cross-linking), N-terminal, kept
B6: CI-MPR_(2347–2375) peptide (bipartite sorting motif of the cation-independent mannose-6-phosphate receptor tail) (peptide, UniProt P11717 2347-2375, looked up)
peptide: SNVSYKYSKVNKEEETDENETEWLMEEIQ
notes: Called a peptide in the ITC methods; also called shorter CI-MPR tail segment

How the values were obtained:
Conditions in all cases: both partners purified
His-SUMO-SNX1 = biological target: T2, His-SUMO-SNX1 (human, UniProt Q13596 1-522); test: pull-down; 5 µM His-SUMO-SNX1 or mutant held on Ni-NTA beads, 10 µM SNX5 or mutant; 1 h at 4 °C in 150 mM NaCl, 10 mM imidazole, 0.5 mM TCEP, 10 mM HEPES pH 7.5; Coomassie-stained SDS-PAGE
T2 construct: sorting nexin 1 (SNX1), human, full length; Bait of the Ni-NTA pull-down; also called wild-type (WT) SNX1; source: E. coli BL21 (DE3), purified (tag-removal step omitted); not shown: His6-SUMO3, N-terminal, kept
T2 sequence (Q13596 whole entry): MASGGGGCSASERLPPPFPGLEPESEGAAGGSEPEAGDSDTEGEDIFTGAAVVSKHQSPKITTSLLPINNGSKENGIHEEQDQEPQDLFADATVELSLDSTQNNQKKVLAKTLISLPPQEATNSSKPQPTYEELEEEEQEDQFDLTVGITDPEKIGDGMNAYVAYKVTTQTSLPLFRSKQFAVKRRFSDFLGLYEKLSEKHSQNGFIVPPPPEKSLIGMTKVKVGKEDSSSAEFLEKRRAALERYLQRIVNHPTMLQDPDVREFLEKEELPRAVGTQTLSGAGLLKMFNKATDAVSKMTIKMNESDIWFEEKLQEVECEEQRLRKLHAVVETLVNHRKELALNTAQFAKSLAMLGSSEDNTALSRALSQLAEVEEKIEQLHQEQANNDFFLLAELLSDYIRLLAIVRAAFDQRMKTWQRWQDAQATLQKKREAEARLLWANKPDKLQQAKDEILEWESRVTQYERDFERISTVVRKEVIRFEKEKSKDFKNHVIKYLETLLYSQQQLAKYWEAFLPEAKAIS

His-SUMO-SNX1 (2× mut)^† = biological target: T3, His-SUMO-SNX1 (2× mut)^† (human, UniProt Q13596 1-522, F347A | W511A); test: as above
T3 construct: sorting nexin 1 (SNX1), human, full length, double mutant; Bait of the Ni-NTA pull-down; source: E. coli BL21 (DE3), purified (tag-removal step omitted); not shown: His6-SUMO3, N-terminal, kept
T3 sequence (Q13596 whole entry F347A/W511A): as the sequence (Q13596 whole entry) above, with F347A, W511A counted along it

[1] = biological target: T4, SNX1^FL (full-length sorting nexin 1) (human, UniProt Q13596 1-522); test: SEC-MALS; 100 μl of protein at 1 mg ml^−1 in 150 mM NaCl, 0.5 mM TCEP, 10 mM HEPES pH 7.5; Superdex 200 Increase 10/300 GL
T4 construct: sorting nexin 1 (SNX1), human, full length; Homodimer by SEC-MALS; also called SNX1 WT; source: E. coli BL21 (DE3), purified (Ni-NTA, SENP2 tag cleavage, ion exchange, SEC); not shown: His6-SUMO3, N-terminal, cleaved
T4 sequence (Q13596 whole entry): as the sequence (Q13596 whole entry) above

[2] = biological target: T5, ESCPE-1 (SNX1^FL–SNX5^FL heterodimer) (human, UniProt Q13596 1-522; Q9Y5X3 1-404); test: ITC; 25 °C, 300 mM NaCl, 0.5 mM TCEP, 25 mM HEPES pH 7.5; CI-MPR in the syringe (SNX1^PX in the syringe for its test with the peptide); one-site model
T5 construct: sorting nexin 1 (SNX1), human, full length; sorting nexin 5 (SNX5), human, full length; Single heterodimer by SEC-MALS; The GST tag is called cleavable; also called SNX1–SNX5; SNX1^WT-SNX5^WT; source: E. coli BL21 (DE3), pellets mixed and lysed together, purified (glutathione Sepharose, Ni-NTA, SENP2, ion exchange, SEC); not shown: His6-SUMO3, N-terminal, cleaved; copies: 1 + 1
T5 sequence (Q13596 whole entry, one chain of several): as the sequence (Q13596 whole entry) above

[3] = biological target: B2; test: as above
[4] = biological target: T5, ESCPE-1 (SNX1^FL–SNX5^FL heterodimer); test: liposome flotation; CI-MPR_(2330–2491) cross-linked by its N-terminal cysteine to DSPE-Mal (1–6%) on liposomes without phosphoinositides; SNXs incubated 1 h at 4 °C in buffer G; sucrose gradient, floated fraction on SDS-PAGE
[5] = biological target: B2; test: as above
[6] = biological target: T6, SNX1^BAR–SNX5^FL heterodimer (human, UniProt Q13596 301-522; Q9Y5X3 1-404); test: ITC; 25 °C, 300 mM NaCl, 0.5 mM TCEP, 25 mM HEPES pH 7.5; CI-MPR in the syringe (SNX1^PX in the syringe for its test with the peptide); one-site model
T6 construct: BAR domain of SNX1, human; sorting nexin 5 (SNX5), human, full length; also called SNX1^BAR–SNX5 partial heterodimer; source: E. coli BL21 (DE3), purified as for SNX1^FL–SNX5^FL; not shown: His6-SUMO3, N-terminal, cleaved; copies: 1 + 1
T6 sequence (Q13596 301-522, chain 1 of 2): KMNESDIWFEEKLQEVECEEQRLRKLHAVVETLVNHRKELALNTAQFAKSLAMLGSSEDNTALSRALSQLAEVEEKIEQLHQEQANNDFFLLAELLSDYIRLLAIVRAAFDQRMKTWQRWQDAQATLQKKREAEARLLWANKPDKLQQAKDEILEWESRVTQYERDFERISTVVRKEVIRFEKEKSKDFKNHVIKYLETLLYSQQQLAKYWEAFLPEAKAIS
T6 sequence (Q9Y5X3 whole entry, chain 2 of 2, the tested form may be a part): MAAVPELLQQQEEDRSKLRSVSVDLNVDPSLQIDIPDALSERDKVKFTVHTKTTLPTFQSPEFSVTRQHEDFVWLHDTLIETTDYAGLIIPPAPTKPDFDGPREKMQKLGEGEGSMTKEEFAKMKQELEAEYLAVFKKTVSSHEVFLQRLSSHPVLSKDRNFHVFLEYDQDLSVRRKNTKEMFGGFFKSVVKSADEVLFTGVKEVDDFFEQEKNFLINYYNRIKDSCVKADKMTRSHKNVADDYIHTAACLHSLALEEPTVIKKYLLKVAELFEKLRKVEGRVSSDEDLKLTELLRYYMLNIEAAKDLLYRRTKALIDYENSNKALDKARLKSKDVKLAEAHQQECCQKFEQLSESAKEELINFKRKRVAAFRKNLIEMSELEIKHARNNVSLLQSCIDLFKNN

[7] = biological target: T1, SNX5^PX (PX domain of SNX5); test: as above
[8] = biological target: T1, SNX5^PX (PX domain of SNX5); test: ITC; 25 °C, 300 mM NaCl, 0.5 mM TCEP, 25 mM HEPES pH 7.5; 445 µM CI-MPR_(2347–2375) peptide titrated into a mix of 100 µM SNX1^BAR and 20 µM SNX5^PX; one-site model

Row | binding result (His-SUMO-SNX1) | binding result (His-SUMO-SNX1 (2× mut)^†) | Kd [2] [nM] | Binder | also measured
1 | binds | binds |  | B1 | 
2 | binds | binds |  | B2 | binding result [1]: binds
3 | binds |  |  | B3 | 
4 |  |  | 2600 | B4 | Kd [3]: ~8800 nM
5 |  |  |  | B5 | binding result [4]: binds; binding result [5]: binds
6 |  |  | 1500 | B6 | Kd [6]: ~1900 nM; Kd [7]: ~8000 nM; KD into a mixture of SNX5^PX and SNX1^BAR [8]: ~3200 nM
